Target: T1, recombinant human SFPQ/PSF (human), P23246
T1 chain: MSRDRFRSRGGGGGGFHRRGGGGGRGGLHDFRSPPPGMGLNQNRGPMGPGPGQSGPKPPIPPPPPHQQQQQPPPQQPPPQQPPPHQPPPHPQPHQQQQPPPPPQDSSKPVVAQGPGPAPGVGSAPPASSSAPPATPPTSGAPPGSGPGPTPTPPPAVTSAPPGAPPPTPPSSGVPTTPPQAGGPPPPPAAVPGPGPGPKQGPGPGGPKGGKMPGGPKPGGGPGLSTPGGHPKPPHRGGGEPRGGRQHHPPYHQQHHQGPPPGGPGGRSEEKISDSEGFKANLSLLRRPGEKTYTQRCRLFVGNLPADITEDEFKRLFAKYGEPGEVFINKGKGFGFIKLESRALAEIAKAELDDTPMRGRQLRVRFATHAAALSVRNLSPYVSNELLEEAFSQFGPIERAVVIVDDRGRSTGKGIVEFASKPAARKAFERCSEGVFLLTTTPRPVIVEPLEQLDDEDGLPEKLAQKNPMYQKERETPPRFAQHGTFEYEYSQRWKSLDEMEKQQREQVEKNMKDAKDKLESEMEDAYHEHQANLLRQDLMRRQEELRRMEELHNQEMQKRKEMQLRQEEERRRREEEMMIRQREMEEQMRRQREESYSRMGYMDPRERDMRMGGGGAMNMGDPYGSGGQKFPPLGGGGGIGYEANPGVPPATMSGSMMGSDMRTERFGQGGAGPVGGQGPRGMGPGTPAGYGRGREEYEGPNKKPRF
Experiment: SEC
Details: remark: other sources report otherwise

B1: recombinant human SFPQ/PSF, P23246 1-707 (natural protein)
chain: MSRDRFRSRGGGGGGFHRRGGGGGRGGLHDFRSPPPGMGLNQNRGPMGPGPGQSGPKPPIPPPPPHQQQQQPPPQQPPPQQPPPHQPPPHPQPHQQQQPPPPPQDSSKPVVAQGPGPAPGVGSAPPASSSAPPATPPTSGAPPGSGPGPTPTPPPAVTSAPPGAPPPTPPSSGVPTTPPQAGGPPPPPAAVPGPGPGPKQGPGPGGPKGGKMPGGPKPGGGPGLSTPGGHPKPPHRGGGEPRGGRQHHPPYHQQHHQGPPPGGPGGRSEEKISDSEGFKANLSLLRRPGEKTYTQRCRLFVGNLPADITEDEFKRLFAKYGEPGEVFINKGKGFGFIKLESRALAEIAKAELDDTPMRGRQLRVRFATHAAALSVRNLSPYVSNELLEEAFSQFGPIERAVVIVDDRGRSTGKGIVEFASKPAARKAFERCSEGVFLLTTTPRPVIVEPLEQLDDEDGLPEKLAQKNPMYQKERETPPRFAQHGTFEYEYSQRWKSLDEMEKQQREQVEKNMKDAKDKLESEMEDAYHEHQANLLRQDLMRRQEELRRMEELHNQEMQKRKEMQLRQEEERRRREEEMMIRQREMEEQMRRQREESYSRMGYMDPRERDMRMGGGGAMNMGDPYGSGGQKFPPLGGGGGIGYEANPGVPPATMSGSMMGSDMRTERFGQGGAGPVGGQGPRGMGPGTPAGYGRGREEYEGPNKKPRF
B1 was tested, and the stoichiometry N was 2.
